# B1: ADC-8 (SN8-cys-MC-PAB-MMAE, with a DAR value of about 4) (antibody, human IgG1, kappa, V domains shown)
# VH: EVQLVESGGGLVQPGGSLRLSCAASGYTFSSYWIEWVRQAPGKGLEWIGEILPGGGDTNYNEIFKGRATFSADTSKNTAYLQMNSLRAEDTAVYYCTRRVPIRLDYWGQGTLVTVSS
# VL: DIQLTQSPSSLSASVGDRVTITCKASQSVDYEGDSFLNWYQQKPGKAPKLLIYAASNLESGVPSRFSGSGSGTDFTLTISSLQPEDFATYYCQQSNEDPLTFGQGTKVEIKR
# modifications: MC-VC-PAB-MMAE coupled to cysteines after TCEP reduction; positions not given; mean n=3.59 per antibody (CE-SDS)
# B2: ADC-6 (hAb015-10-cys-D, with a DAR value of about 4) (antibody, human IgG1, kappa, V domains shown)
# VH: EVQLVQSGAEVKKPGSSVKVSCKASGSSFSSYGINWVKQAPGQGLEWIGEIFPRSGNTYYNEKFEGRATLTADKSTSTAYMELRSLRSEDTAVYYCAKGDLGDFDYWGQGTTVTVSS
# VL: DFVMTQTPLSLPVTPGEPASISCRSSQSIVHSDGNTYFEWYLQKPGQSPKLLIYKVSNRFSGVPDRFSGSGSGTDFTLKISRVEAEDVGVYYCFQGSHVPWTFGGGTKVEIKR
# modifications: compound D (exatecan derivative linker-drug, Topo I inhibitor) coupled to cysteines after TCEP reduction; positions not given; mean n=3.46 per antibody (RP-HPLC)
# B3: ADC-5 (HAB015-10-cys-D, with a DAR value of about 2) (antibody, human IgG1, kappa, V domains shown)
# VH: B2 VH
# VL: B2 VL
# modifications: compound D (exatecan derivative linker-drug, Topo I inhibitor) coupled to cysteines after TCEP reduction; positions not given; mean n=1.81 per antibody (RP-HPLC)
# notes: Antibody-drug conjugate of hAb015-10 with compound D
# B4: ADC-3 (hAb015-10-cys-MC-vc-PAB-MMAE) (antibody, human IgG1, kappa, V domains shown)
# VH: B2 VH
# VL: B2 VL
# modifications: MC-vc-PAB-MMAE coupled to cysteines after TCEP reduction; positions not given; mean n=3.09 per antibody (CE-SDS)
# B5: ADC-7 (hAb015-10-cys-D, with a DAR value of about 6) (antibody, human IgG1, kappa, V domains shown)
# VH: B2 VH
# VL: B2 VL
# modifications: compound D (exatecan derivative linker-drug, Topo I inhibitor) coupled to cysteines after TCEP reduction; positions not given; mean n=5.84 per antibody (RP-HPLC)
# B6: hAb015-10 (antibody, human IgG1, kappa, V domains shown)
# VH: B2 VH
# VL: B2 VL
# notes: Humanized form of the mouse hybridoma antibody mAb015; also called humanized anti-CD79b antibody hAb015-10; naked antibody
# Molecular target: T1, human CD79b protein on DoHH2 and WSU-DLCL2 cells (human, UniProt P40259 29-229)
# T1 sequence (looked up): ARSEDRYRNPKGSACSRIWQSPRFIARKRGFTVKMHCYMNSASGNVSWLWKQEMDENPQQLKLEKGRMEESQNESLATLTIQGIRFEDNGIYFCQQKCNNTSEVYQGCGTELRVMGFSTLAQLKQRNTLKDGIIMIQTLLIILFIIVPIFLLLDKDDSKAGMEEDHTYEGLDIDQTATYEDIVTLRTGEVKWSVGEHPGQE
# Assay: cell-based or functional assay
Binder,"IC50 of in vitro proliferation inhibition (MTT, 72 h), DoHH2 cells [µg/mL]","IC50 of in vitro proliferation inhibition (MTT, 72 h), WSU-DLCL2 cells [µg/mL]"
B1,0.0806,0.117
B2,0.0033,0.0542
B3,0.0085,0.0683
B4,0.0033,0.0059
B5,0.002,0.0534

# Molecular target: T2, human CD79b protein (human, UniProt P40259 29-159, limits assumed)
# T2 construct: Recombinant protein used in the Biacore assay
# T2 sequence (looked up): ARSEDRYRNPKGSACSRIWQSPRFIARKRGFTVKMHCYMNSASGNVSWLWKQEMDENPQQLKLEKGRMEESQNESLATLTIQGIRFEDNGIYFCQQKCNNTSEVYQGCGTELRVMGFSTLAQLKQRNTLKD
# Assay: Biacore affinity assay, 1:1 Langmuir fit; column head prints EC50 (nM)
# Protocol: Data fitting was performed with a (1:1) Langmuir model using BIAevaluation version 4.1, GE software to obtain affinity values.
row,Binder,KD (binding affinity) [nM]
1,B6,0.38

# Reference: patent US20250108122A1 (SHANGHAI MABGEN BIOTECH, published 2025)
